Laboratory results as given in the RNAGym collection of RNA variant scans (doi:10.1101/gr.219683.116).

B1: mRNA-splicing (parent)
chain: AGUUGCUGCUGGGAGCUCCAGCACAGUGAAAUGGACAGAAGGGCAGAGCAA

Variants of: B1
Test: exon inclusion enrichment index; higher = more inclusion; WT1 exon 5 minigene, HEK293

Variant	exon inclusion enrichment index
G5A C6G U7G C9A A29G	0.00111
G5A C6G U7G C9A A29U	0.000861
G5A C6G U7G C9A A29C	0.00344
G5A C6G U7G C9A A45G G46A	0.0107
G5A C6G U7G C9A A45G G46U	0.00135
G5A C6G U7G C9A A45G G46C	0.00144
G5A C6G U7G C9A G33A G34A	0.000844
G5A C6G U7G C9A G33A G34U	0.000917
G5A C6G U7G C9A G33A G34C	0.000823
G5A C6G U7G C9A C18A C19U	0.00126
G5A C6G U7G C9A C18A C19A	0.0013
G5A C6G U7G C9A C18A C19G	0.00131
G5A C6G U7G C9A G15A C16U	0.000755
G5A C6G U7G C9A G15A C16A	0.000736
G5A C6G U7G C9A G15A C16G	0.00097
G5A C6G U7G C9A A31U	0.00278
G5A C6G U7G C9A A31G	0.00766
G5A C6G U7G C9A A31C	0.00349
G5A C6G U7G C9A G34A A35C	0.00134
G5A C6G U7G C9A G34A A35G	0.00114
G5A C6G U7G C9A G34A A35U	0.00125
G5A C6G U7G C9A A29U A30G	0.00279
G5A C6G U7G C9A A29U A30U	0.000968
G5A C6G U7G C9A A29U A30C	0.000854

Variant	exon inclusion enrichment index
G5A C6G U7G C9A G34C A35C	0.00219
G5A C6G U7G C9A G34C A35G	0.00232
G5A C6G U7G C9A G34C A35U	0.00103
G5A C6G U7G C9A C22G A23C	0.000809
G5A C6G U7G C9A C22G A23U	0.000928
G5A C6G U7G C9A C22G A23G	0.00134
G5A C6G U7G C9A A30C A31G	0.00621
G5A C6G U7G C9A A30C A31U	0.00118
G5A C6G U7G C9A A30C A31C	0.00182
G5A C6G U7G C9A A23U	0.0012
G5A C6G U7G C9A C18U C19A	0.00106
G5A C6G U7G C9A C18U C19U	0.00102
G5A C6G U7G C9A C18U C19G	0.00111
G5A C6G U7G C9A A31C U32A	0.00457
G5A C6G U7G C9A A31C U32C	0.00479
G5A C6G U7G C9A A31C U32G	0.00133
G5A C6G U7G C9A G38C	0.000603
G5A C6G U7G C9A G38U	0.000717
G5A C6G U7G C9A G38A	0.000584
G5A C6G U7G C9A A37C G38U	0.000751
G5A C6G U7G C9A A37C G38C	0.00112
G5A C6G U7G C9A A37C G38A	0.00086
G5A C6G U7G C9A A25U	0.00086
G5A C6G U7G C9A A25G	0.0133

Variant	exon inclusion enrichment index
G5A C6G U7G C9A A25C	0.0135
G5A C6G U7G C9A A47G G48U	0.000624
G5A C6G U7G C9A A47G G48C	0.000801
G5A C6G U7G C9A A47G G48A	0.000837
G5A C6G U7G C9A A35G C36A	0.00181
G5A C6G U7G C9A A35G C36U	0.00169
G5A C6G U7G C9A A35G C36G	0.00533
G5A C6G U7G C9A G26A	0.00477
G5A C6G U7G C9A G26C	0.00298
G5A C6G U7G C9A G26U	0.00112
G5A C6G U7G C9A C19U A20C	0.00291
G5A C6G U7G C9A C19U A20U	0.00173
G5A C6G U7G C9A C19U A20G	0.00155
G5A C6G U7G C9A G12C G13A	0.00586
G5A C6G U7G C9A G12C G13C	0.00164
G5A C6G U7G C9A G12C G13U	0.000686
G5A C6G U7G C9A G34A	0.00215
G5A C6G U7G C9A G34C	0.000973
G5A C6G U7G C9A G34U	0.000859
G5A C6G U7G C9A G11A G12U	0.000779
G5A C6G U7G C9A G11A G12C	0.00102
G5A C6G U7G C9A G11A G12A	0.00145
G5A C6G U7G C9A C24A A25G	0.0011
G5A C6G U7G C9A C24A A25C	0.0413

Variant	exon inclusion enrichment index
G5A C6G U7G C9A C24A A25U	0.00166
G5A C6G U7G C9A A30U A31C	0.00225
G5A C6G U7G C9A A30U A31G	0.000854
G5A C6G U7G C9A A30U A31U	0.00264
G5A C6G U7G C9A G38U A39U	0.000926
G5A C6G U7G C9A G38U A39G	0.00105
G5A C6G U7G C9A G38U A39C	0.000723
G5A C6G U7G C9A A47G	0.00123
G5A C6G U7G C9A A47U	0.00119
G5A C6G U7G C9A A47C	0.0181
G5A C6G U7G C9A G15C C16G	0.004
G5A C6G U7G C9A G15C C16A	0.00139
G5A C6G U7G C9A G15C C16U	0.000839
G5A C6G U7G C9A A29C A30U	0.00149
G5A C6G U7G C9A A29C A30G	0.0167
G5A C6G U7G C9A A29C A30C	0.00169
G5A C6G U7G C9A G28U A29U	0.000755
G5A C6G U7G C9A G28U A29C	0.000797
G5A C6G U7G C9A G28U A29G	0.00238
G5A C6G U7G C9A C24U A25U	0.000784
G5A C6G U7G C9A C24U A25G	0.00148
G5A C6G U7G C9A C24U A25C	0.0183
G5A C6G U7G C9A A39G A40U	0.00199
G5A C6G U7G C9A A39G A40G	0.0132

Variant	exon inclusion enrichment index
G5A C6G U7G C9A A39G A40C	0.00397
G5A C6G U7G C9A C19U	0.00126
G5A C6G U7G C9A C19G	0.00133
G5A C6G U7G C9A C19A	0.00105
G5A C6G U7G C9A G11C G12C	0.00959
G5A C6G U7G C9A G11C G12A	0.000679
G5A C6G U7G C9A G11C G12U	0.00113
G5A C6G U7G C9A G34U A35C	0.000948
G5A C6G U7G C9A G34U A35G	0.00131
G5A C6G U7G C9A G34U A35U	0.00101
G5A C6G U7G C9A C24G A25G	0.00108
G5A C6G U7G C9A C24G A25C	0.00471
G5A C6G U7G C9A C24G A25U	0.00102
G5A C6G U7G C9A A40U	0.00193
G5A C6G U7G C9A A40C	0.00374
G5A C6G U7G C9A A40G	0.00228
G5A C6G U7G C9A G11U G12U	0.000733
G5A C6G U7G C9A G11U G12C	0.00339
G5A C6G U7G C9A G11U G12A	0.00148
G5A C6G U7G C9A C36U A37C	0.000996
G5A C6G U7G C9A C36U A37U	0.00084
G5A C6G U7G C9A C36U A37G	0.00557
G5A C6G U7G C9A A30C	0.00196
G5A C6G U7G C9A A30G	0.00525

Variant	exon inclusion enrichment index
G5A C6G U7G C9A A30U	0.00076
G5A C6G U7G C9A A29G A30C	0.000858
G5A C6G U7G C9A A29G A30G	0.00214
G5A C6G U7G C9A A29G A30U	0.000871
G5A C6G U7G C9A A35U C36U	0.000752
G5A C6G U7G C9A A35U C36A	0.001
G5A C6G U7G C9A A35U C36G	0.00119
G5A C6G U7G C9A G28A A29C	0.00171
G5A C6G U7G C9A G28A A29G	0.000786
G5A C6G U7G C9A G28A A29U	0.000814
G5A C6G U7G C9A G26U U27A	0.00104
G5A C6G U7G C9A G26U U27G	0.00474
G5A C6G U7G C9A G26U U27C	0.0253
G5A C6G U7G C9A C16G U17G	0.0104
G5A C6G U7G C9A C16G U17C	0.00106
G5A C6G U7G C9A C16G U17A	0.00122
G5A C6G U7G C9A A37G G38A	0.0012
G5A C6G U7G C9A A37G G38C	0.00203
G5A C6G U7G C9A A37G G38U	0.000981
G5A C6G U7G C9A C16G	0.00149
G5A C6G U7G C9A C16A	0.00192
G5A C6G U7G C9A C16U	0.000705
G5A C6G U7G C9A G26C U27C	0.0114
G5A C6G U7G C9A G26C U27A	0.00255

Variant	exon inclusion enrichment index
G5A C6G U7G C9A G26C U27G	0.0205
G5A C6G U7G C9A G41C	0.013
G5A C6G U7G C9A G41A	0.0013
G5A C6G U7G C9A G12A	0.000801
G5A C6G U7G C9A G12U	0.00152
G5A C6G U7G C9A G12C	0.00529
G5A C6G U7G C9A G12U G13C	0.00117
G5A C6G U7G C9A G12U G13A	0.000517
G5A C6G U7G C9A G12U G13U	0.000533
G5A C6G U7G C9A C16U U17C	0.000766
G5A C6G U7G C9A C16U U17G	0.0132
G5A C6G U7G C9A C16U U17A	0.00236
G5A C6G U7G C9A A47U G48C	0.000966
G5A C6G U7G C9A A47U G48A	0.00057
G5A C6G U7G C9A A47U G48U	0.000738
G5A C6G U7G C9A A39U	0.000789
G5A C6G U7G C9A A39G	0.00219
G5A C6G U7G C9A A39C	0.00101
G5A C6G U7G C9A A35U	0.000728
G5A C6G U7G C9A A35G	0.00109
G5A C6G U7G C9A A35C	0.00244
G5A C6G U7G C9A C18G C19A	0.00169
G5A C6G U7G C9A C18G C19G	0.0012
